According to article PMC2734569, “Functional mapping of the fission yeast DNA polymerase δ B-subunit Cdc1 by site-directed and random pentapeptide insertion mutagenesis” (BMC Molecular Biology, 2009):

What was measured:
Test in all cases: two-hybrid; LexA-Cdc1 bait (pBTM116 or pBTM116BN) with Gal4 activation domain-Cdc27 prey (pGAD2F-Cdc27) in S. cerevisiae CTY10-5d; ONPG liquid culture beta-galactosidase assay, mean of triplicates, as percent of wild-type Cdc1
Conditions in all cases: partners not purified
[1] = target: T1, Cdc1-E4 (Schizosaccharomyces pombe, UniProt P87324 1-462, Cys-GlyValProProCys-Glu)
T1 construct: Cdc1, S. pombe, with a pentapeptide inserted after residue 10; source: yeast two-hybrid fusion, in S. cerevisiae CTY10-5d
T1 sequence (looked up): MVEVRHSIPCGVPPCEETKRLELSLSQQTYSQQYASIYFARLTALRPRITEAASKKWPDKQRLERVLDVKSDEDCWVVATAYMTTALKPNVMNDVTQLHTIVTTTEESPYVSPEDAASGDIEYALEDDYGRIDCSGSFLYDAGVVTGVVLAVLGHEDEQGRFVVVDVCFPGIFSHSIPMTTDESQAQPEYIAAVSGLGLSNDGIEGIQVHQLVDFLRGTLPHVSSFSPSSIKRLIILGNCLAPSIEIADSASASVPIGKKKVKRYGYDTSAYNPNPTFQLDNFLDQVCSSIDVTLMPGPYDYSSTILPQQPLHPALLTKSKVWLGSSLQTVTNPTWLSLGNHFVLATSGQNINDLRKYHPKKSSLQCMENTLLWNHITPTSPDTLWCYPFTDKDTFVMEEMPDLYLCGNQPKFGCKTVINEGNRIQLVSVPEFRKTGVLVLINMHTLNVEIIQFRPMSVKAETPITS

[2] = target: T2, Cdc1-A5 (Schizosaccharomyces pombe, UniProt P87324 1-462, Asn328Ala)
T2 construct: Cdc1, S. pombe, point mutant; source: yeast two-hybrid fusion, in S. cerevisiae CTY10-5d
T2 sequence (looked up): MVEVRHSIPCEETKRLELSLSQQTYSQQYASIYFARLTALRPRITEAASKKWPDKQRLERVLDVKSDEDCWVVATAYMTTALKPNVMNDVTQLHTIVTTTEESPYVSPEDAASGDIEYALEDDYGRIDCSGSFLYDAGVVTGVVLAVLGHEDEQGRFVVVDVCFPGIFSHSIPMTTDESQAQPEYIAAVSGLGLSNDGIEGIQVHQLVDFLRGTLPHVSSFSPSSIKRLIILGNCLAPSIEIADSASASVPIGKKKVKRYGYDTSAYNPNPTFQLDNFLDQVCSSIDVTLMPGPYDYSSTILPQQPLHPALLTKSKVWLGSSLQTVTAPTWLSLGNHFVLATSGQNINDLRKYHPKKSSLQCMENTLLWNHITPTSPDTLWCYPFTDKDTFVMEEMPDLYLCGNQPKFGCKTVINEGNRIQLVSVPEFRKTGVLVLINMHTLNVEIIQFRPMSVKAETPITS

[3] = target: T3, Cdc1-J4 (Schizosaccharomyces pombe, UniProt P87324 1-462, Ile-GlyValProArgIle-Asp)
T3 construct: Cdc1, S. pombe, with a pentapeptide inserted after residue 127; also called J5; J13; source: yeast two-hybrid fusion, in S. cerevisiae CTY10-5d
T3 sequence (looked up): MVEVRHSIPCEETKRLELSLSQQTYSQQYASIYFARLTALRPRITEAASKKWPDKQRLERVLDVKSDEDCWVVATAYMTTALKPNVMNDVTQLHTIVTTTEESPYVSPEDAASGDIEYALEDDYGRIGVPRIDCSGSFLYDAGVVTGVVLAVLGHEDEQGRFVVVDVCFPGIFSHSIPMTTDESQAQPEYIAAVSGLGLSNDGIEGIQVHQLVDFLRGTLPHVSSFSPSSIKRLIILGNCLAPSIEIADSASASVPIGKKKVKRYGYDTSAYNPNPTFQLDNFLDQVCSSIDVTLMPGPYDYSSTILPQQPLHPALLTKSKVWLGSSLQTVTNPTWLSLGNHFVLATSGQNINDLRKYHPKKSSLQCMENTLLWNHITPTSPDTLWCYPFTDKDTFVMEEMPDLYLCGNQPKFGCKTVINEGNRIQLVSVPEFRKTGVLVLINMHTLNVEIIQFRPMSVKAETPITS

[4] = target: T4, Cdc1-J22 (Schizosaccharomyces pombe, UniProt P87324 1-462, Arg-GlyValProLeuArg-Gly)
T4 construct: Cdc1, S. pombe, with a pentapeptide inserted after residue 212; source: yeast two-hybrid fusion, in S. cerevisiae CTY10-5d
T4 sequence (looked up): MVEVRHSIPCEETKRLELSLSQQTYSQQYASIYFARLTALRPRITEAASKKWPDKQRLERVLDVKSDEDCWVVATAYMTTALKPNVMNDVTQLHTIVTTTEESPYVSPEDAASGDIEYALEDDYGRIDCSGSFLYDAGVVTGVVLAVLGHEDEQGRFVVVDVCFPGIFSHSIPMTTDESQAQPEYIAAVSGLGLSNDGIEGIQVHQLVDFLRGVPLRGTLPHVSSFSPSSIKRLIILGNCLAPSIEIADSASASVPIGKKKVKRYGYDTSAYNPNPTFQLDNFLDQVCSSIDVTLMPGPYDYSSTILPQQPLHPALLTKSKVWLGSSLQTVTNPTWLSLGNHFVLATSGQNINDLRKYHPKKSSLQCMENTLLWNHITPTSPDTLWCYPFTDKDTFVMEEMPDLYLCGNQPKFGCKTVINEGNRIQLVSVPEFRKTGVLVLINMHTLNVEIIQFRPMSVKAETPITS

B1: Cdc27 (fission yeast DNA polymerase delta C-subunit) (natural protein, Schizosaccharomyces pombe, UniProt P30261 1-372, looked up)
chain: MEEWRNFLDIKVINESSLVTVDNLSLQLDISSEKAQEYLNMFYQGNDFLYPIYLIHGQPIDDEINLEIDEESQPISNFPVLQYILCDKSSLQEKQSRLKSGYKTVIFALSSAPLSDFDELLPAVYEIREKDVLYKKEDADKYGFIFNENSVPRVLKKAPSTHSPQLSVPSKTSTIDKTDTRSTEKTKGKDIFSNARNQKGNSSRKNKKAPLENHKEKEPLLPKEEKLSEQAKRERDDLKNIMQLEDESVSTTSVHDSEDDNLDSNNFQLEIGTEAKSAAPDEPQEIIKSVSGGKRRGKRKVKKYATTKDEEGFLVTKEEEVWESFSEDENISTGTSNVVRNKPTTVNIATKKKNTAQSKPQQKSIMSFFGKK
notes: DNA polymerase delta C-subunit Cdc27, S. pombe; prey plasmid pGAD2F-Cdc27; also called pGAD2F-Cdc27; source: yeast two-hybrid fusion, in S. cerevisiae CTY10-5d
For B1, the “two-hybrid beta-galactosidase activity, % of wild-type Cdc1” value [1] was 62%, the “two-hybrid beta-galactosidase activity, % of wild-type Cdc1” value [2] was 37% and the “two-hybrid beta-galactosidase activity, % of wild-type Cdc1” value [3] was less than 1%. The “two-hybrid beta-galactosidase activity, % of wild-type Cdc1” value [4] was 7%.
